T1: Tie2 (Homo sapiens, UniProt Q02763)
T1 chain: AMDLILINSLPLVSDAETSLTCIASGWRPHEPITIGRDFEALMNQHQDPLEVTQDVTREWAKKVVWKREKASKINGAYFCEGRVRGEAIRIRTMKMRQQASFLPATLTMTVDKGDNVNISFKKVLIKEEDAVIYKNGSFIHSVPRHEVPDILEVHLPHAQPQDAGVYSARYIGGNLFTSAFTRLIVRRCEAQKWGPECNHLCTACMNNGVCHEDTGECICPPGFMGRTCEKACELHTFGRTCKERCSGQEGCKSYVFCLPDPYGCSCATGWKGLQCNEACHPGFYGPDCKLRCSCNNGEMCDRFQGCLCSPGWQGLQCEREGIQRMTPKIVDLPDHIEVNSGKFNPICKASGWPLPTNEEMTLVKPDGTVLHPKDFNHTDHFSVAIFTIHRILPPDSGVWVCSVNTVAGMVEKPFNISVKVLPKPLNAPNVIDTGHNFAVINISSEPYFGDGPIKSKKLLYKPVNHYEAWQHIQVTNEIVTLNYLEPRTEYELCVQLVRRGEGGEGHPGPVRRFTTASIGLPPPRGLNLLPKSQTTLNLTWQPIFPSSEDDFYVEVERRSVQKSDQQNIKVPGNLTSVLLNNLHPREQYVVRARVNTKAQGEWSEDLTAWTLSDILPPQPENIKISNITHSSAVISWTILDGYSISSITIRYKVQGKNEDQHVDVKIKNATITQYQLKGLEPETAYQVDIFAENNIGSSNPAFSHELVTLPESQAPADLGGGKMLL


Target: T1, Tie2
Assay: SPR (Biacore)

Kd | Binder
3 pM | activated protein C (APC) (protein) chain 1: ANSFLEELRHSSLERECIEEICDFEEAKEIFQNVDDTLAFWSKHVDGDQCLVLPLEHPCASLCCGHGTCIDGIGSFSCDCRSGWEGRFCQREVSFLNCSLDNGGCTHYCLEEVGWRRCSCAPGYKLGDDLLQCHPAVKFPCGRPWKRMEKKRSHL chain 2: LIDGKMTRRGDSPWQVVLLDSKKKLACGAVLIHPSWVLTAAHCMDESKKLLVRLGEYDLRRWEKWELDLDIKEVFVHPNYSKSTTDNDIALLHLAQPATLSQTIVPICLPDSGLAERELNQAGQETLVTGWGYHSSREKEAKRNRTFVLNFIKIPVVPHNECSEVMSNMVSENMLCAGILGDRQDACEGDSGGPMVASFHGTWFLVGLVSWGEGCGLLHNYGVYTKVSRYLDWIHGHIRDKEAPQKSWAP
2 pM | Angiopoietin-1 (Ang1) (protein) HIGCSNQRRSPENSGRRYNRIQHGQCAYTFILPEHDGNCRESTTDQYNTNALQRDAPHVEPDFSSQKLQHLEHVMENYTQWLQKLENYIVENMKSEMAQIQQNAVQNHTATMLEIGTSLLSQTAEQTRKLTDVETQVLNQTSRLEIQLLENSLSTYKLEKQLLQQTNEILKIHEKNSLLEHKILEMEGKHKEELDTLKEEKENLQGLVTRQTYIIQELEKQLNRATTNNSVLQKQQLELMDTVHNLVNLCTKEGVLLKGGKREEEKPFRDCADVYQAGFNKSGIYTIYINNMPEPKKVFCNMDVNGGGWTVIQHREDGSLDFQRGWKEYKMGFGNPSGEYWLGNEFIFAITSQRQYMLRIELMDWEGNRAYSQYDRFHIGNEKQNYRLYLKGHTGTAGKQSSLILHGADFSTKDADNDNCMCKCALMLTGGWWFDACGPSNLNGMFYTAGQNHGKLNGIKWHYFKGPSYSLRSTTMMIRPLDF
32 pM | Angiopoietin-2 (Ang2) (protein) YNNFRKSMDSIGKKQYQVQHGSCSYTFLLPEMDNCRSSSSPYVSNAVQRDAPLEYDDSVQRLQVLENIMENNTQWLMKLENYIQDNMKKEMVEIQQNAVQNQTAVMIEIGTNLLNQTAEQTRKLTDVEAQVLNQTTRLELQLLEHSLSTNKLEKQILDQTSEINKLQDKNSFLEKKVLAMEDKHIIQLQSIKEEKDQLQVLVSKQNSIIEELEKKIVTATVNNSVLQKQQHDLMETVNNLLTMMSTSNSAKDPTVAKEEQISFRDCAEVFKSGHTTNGIYTLTFPNSTEEIKAYCDMEAGGGGWTIIQRREDGSVDFQRTWKEYKVGFGNPSGEYWLGNEFVSQLTNQQRYVLKIHLKDWEGNEAYSLYEHFYLSSEELNYRIHLKGLTGTAGKISSISQPGNDFSTKDGDNDKCICKCSQMLTGGWWFDACGPSNLNGMYYPQRQNTNKFNGIKWYYWKGSGYSLKATTMMIRPADF

— paper PMC6763540 (2013)
